Source: publication PMC10011603, “TRAK adaptors regulate the recruitment and activation of dynein and kinesin in mitochondrial transport” (Nature Communications, 2023)

T1: full-length human kinesin-1 heavy chain (KIF5B-GFP-SNAPf) (human, UniProt P33176 1-963, fluorescent dye in motility assays (LD555-kinesin, Alexa488-kinesin))
T1 construct: kinesin-1 heavy chain KIF5B, human, amino acids 1-963, full length; source: baculovirus-infected SF9 cells, purified (IgG Sepharose, TEV protease); not shown: His6-ZZ, N-terminal, cleaved; GFP, C-terminal, kept; SNAPf, C-terminal, kept
T1 sequence (looked up): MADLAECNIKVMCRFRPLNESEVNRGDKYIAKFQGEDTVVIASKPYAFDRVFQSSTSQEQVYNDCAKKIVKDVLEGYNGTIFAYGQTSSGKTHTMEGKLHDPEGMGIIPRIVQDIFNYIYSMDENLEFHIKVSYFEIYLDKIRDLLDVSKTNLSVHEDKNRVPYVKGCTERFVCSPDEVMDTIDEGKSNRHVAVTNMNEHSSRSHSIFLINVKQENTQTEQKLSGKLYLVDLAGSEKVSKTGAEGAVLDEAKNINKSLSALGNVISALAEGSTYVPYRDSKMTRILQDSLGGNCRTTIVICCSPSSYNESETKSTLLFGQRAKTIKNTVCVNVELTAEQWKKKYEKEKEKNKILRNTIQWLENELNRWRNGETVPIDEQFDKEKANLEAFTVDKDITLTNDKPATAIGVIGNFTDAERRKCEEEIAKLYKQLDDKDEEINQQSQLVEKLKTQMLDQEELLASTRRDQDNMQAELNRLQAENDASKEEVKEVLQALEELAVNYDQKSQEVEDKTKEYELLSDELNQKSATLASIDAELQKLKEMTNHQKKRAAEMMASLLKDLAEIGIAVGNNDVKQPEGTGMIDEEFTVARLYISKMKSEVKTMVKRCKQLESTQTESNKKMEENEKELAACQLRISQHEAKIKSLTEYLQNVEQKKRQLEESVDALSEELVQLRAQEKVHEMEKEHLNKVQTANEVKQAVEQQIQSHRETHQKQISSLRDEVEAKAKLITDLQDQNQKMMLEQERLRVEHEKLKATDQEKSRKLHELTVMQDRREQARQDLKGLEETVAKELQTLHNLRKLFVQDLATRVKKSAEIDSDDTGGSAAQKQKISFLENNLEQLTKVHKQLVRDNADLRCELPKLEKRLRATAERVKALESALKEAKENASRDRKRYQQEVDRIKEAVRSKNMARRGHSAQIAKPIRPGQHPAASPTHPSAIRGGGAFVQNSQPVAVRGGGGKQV


Tests used:
[1] = target: T1, full-length human kinesin-1 heavy chain …; experiment: single-molecule TIRF colocalisation on microtubules; two-colour imaging of labeled kinesin and labeled TRAK constructs on surface-immobilized MTs, 0-50 nM MAP7, 1 mM Mg·ATP; also with 2 mM Ca2+; settings: both partners purified
[2] = target: T1, full-length human kinesin-1 heavy chain …; experiment: cell-based or functional assay
[3] = target: T1, full-length human kinesin-1 heavy chain …; experiment: single-molecule TIRF colocalisation on microtubules; three-colour imaging of Alexa488-KIF5B, LD555-TRAK1 1-532 (or full-length TRAK1) and LD655-Miro1 1-592; 10 nM MAP7; 0, 0.1 and 2 mM Ca2+; settings: both partners purified
[4] = target: T2, Miro1^1–592 (Miro1^1–592-SNAP-psc-StrepII) (human, UniProt Q8IXI2 1-592, LD655 dye on the SNAP tag in motility assays); experiment: as above; settings: both partners purified
T2 construct: mitochondrial Rho GTPase 1 (Miro1), human, residues 1-592, lacks the transmembrane domain; A PreScission site (psc) stands between SNAP and StrepII; no cleavage is told; also called Miro1^1–592-StrepII; Miro1^1–592-SNAPf-StrepII; source: purified (Streptactin Sepharose, eluted with desthiobiotin); not shown: SNAP, C-terminal, kept; StrepII, C-terminal, kept
T2 sequence (Q8IXI2 1-592): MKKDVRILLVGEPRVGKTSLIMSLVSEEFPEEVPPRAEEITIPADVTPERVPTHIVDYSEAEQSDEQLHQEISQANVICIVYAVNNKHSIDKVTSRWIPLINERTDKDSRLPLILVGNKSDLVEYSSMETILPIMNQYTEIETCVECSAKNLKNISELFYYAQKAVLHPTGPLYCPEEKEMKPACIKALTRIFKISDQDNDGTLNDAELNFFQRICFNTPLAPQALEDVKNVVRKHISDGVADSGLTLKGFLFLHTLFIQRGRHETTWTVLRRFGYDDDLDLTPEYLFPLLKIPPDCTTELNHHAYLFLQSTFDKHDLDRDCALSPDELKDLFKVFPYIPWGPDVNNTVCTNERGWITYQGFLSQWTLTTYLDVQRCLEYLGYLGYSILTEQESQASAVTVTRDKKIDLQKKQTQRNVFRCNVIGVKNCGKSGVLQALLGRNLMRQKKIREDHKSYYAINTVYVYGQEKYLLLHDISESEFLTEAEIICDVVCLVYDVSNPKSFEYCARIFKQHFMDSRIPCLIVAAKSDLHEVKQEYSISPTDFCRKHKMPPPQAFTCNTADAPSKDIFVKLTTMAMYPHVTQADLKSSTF

Row | Binder | binding result [1] | other results
1 | full-length TRAK1 (TRAK1^1–953) (natural protein, human, UniProt Q9UPV9 1-953, looked up, TRAK1, human, residues 1-953, full length; source: HEK 293 F GNTI-/- cells, PEI transfection, purified (TRAK purification procedure); not shown: His6-ZZ, N-terminal, cleaved; SNAP-tag or GFP, C-terminal, kept) MALVFQFGQPVRAQPLPGLCHGKLIRTNACDVCNSTDLPEVEIISLLEEQLPHYKLRADTIYGYDHDDWLHTPLISPDANIDLTTEQIEETLKYFLLCAERVGQMTKTYNDIDAVTRLLEEKERDLELAARIGQSLLKKNKTLTERNELLEEQVEHIREEVSQLRHELSMKDELLQFYTSAAEESEPESVCSTPLKRNESSSSVQNYFHLDSLQKKLKDLEEENVVLRSEASQLKTETITYEEKEQQLVNDCVKELRDANVQIASISEELAKKTEDAARQQEEITHLLSQIVDLQKKAKACAVENEELVQHLGAAKDAQRQLTAELRELEDKYAECMEMLHEAQEELKNLRNKTMPNTTSRRYHSLGLFPMDSLAAEIEGTMRKELQLEEAESPDITHQKRVFETVRNINQVVKQRSLTPSPMNIPGSNQSSAMNSLLSSCVSTPRSSFYGSDIGNVVLDNKTNSIILETEAADLGNDERSKKPGTPGTPGSHDLETALRRLSLRRENYLSERRFFEEEQERKLQELAEKGELRSGSLTPTESIMSLGTHSRFSEFTGFSGMSFSSRSYLPEKLQIVKPLEGSATLHHWQQLAQPHLGGILDPRPGVVTKGFRTLDVDLDEVYCLNDFEEDDTGDHISLPRLATSTPVQHPETSAHHPGKCMSQTNSTFTFTTCRILHPSDELTRVTPSLNSAPTPACGSTSHLKSTPVATPCTPRRLSLAESFTNTRESTTTMSTSLGLVWLLKERGISAAVYDPQSWDRAGRGSLLHSYTPKMAVIPSTPPNSPMQTPTSSPPSFEFKCTSPPYDNFLASKPASSILREVREKNVRSSESQTDVSVSNLNLVDKVRRFGVAKVVNSGRAHVPTLTEEQGPLLCGPPGPAPALVPRGLVPEGLPLRCPTVTSAIGGLQLNSGIRRNRSFPTMVGSSMQMKAPVTLTSGILMGAKLSKQTSLR | binds | 
2 | TRAK1^1–360 (domain or fragment, human, UniProt Q9UPV9 1-360, looked up, LD555 or LD655 dye on the SNAP-tag in motility assays) MALVFQFGQPVRAQPLPGLCHGKLIRTNACDVCNSTDLPEVEIISLLEEQLPHYKLRADTIYGYDHDDWLHTPLISPDANIDLTTEQIEETLKYFLLCAERVGQMTKTYNDIDAVTRLLEEKERDLELAARIGQSLLKKNKTLTERNELLEEQVEHIREEVSQLRHELSMKDELLQFYTSAAEESEPESVCSTPLKRNESSSSVQNYFHLDSLQKKLKDLEEENVVLRSEASQLKTETITYEEKEQQLVNDCVKELRDANVQIASISEELAKKTEDAARQQEEITHLLSQIVDLQKKAKACAVENEELVQHLGAAKDAQRQLTAELRELEDKYAECMEMLHEAQEELKNLRNKTMPNTTS |  | kinesin landing rate on MTs in the presence of MAP7, 5-20 nM TRAK1 1-360 against no TRAK [2]: 5 fold
3 | TRAK1^1–532 (domain or fragment, human, UniProt Q9UPV9 1-532, looked up, LD555 dye on the SNAP-tag in motility assays, full length printed as 1-953; also called TRAK1 construct containing the coiled coils and part of the C-terminal domain; source: baculovirus-infected SF9 cells, purified (IgG Sepharose, TEV protease); not shown: His6-ZZ, N-terminal, cleaved; SNAP-tag or GFP, C-terminal, kept) MALVFQFGQPVRAQPLPGLCHGKLIRTNACDVCNSTDLPEVEIISLLEEQLPHYKLRADTIYGYDHDDWLHTPLISPDANIDLTTEQIEETLKYFLLCAERVGQMTKTYNDIDAVTRLLEEKERDLELAARIGQSLLKKNKTLTERNELLEEQVEHIREEVSQLRHELSMKDELLQFYTSAAEESEPESVCSTPLKRNESSSSVQNYFHLDSLQKKLKDLEEENVVLRSEASQLKTETITYEEKEQQLVNDCVKELRDANVQIASISEELAKKTEDAARQQEEITHLLSQIVDLQKKAKACAVENEELVQHLGAAKDAQRQLTAELRELEDKYAECMEMLHEAQEELKNLRNKTMPNTTSRRYHSLGLFPMDSLAAEIEGTMRKELQLEEAESPDITHQKRVFETVRNINQVVKQRSLTPSPMNIPGSNQSSAMNSLLSSCVSTPRSSFYGSDIGNVVLDNKTNSIILETEAADLGNDERSKKPGTPGTPGSHDLETALRRLSLRRENYLSERRFFEEEQERKLQELAEKGE |  | binding result [3]: binds; binding result [4]: binds
4 | full-length TRAK2 (TRAK2^1–914) (natural protein, human, UniProt O60296 1-914, looked up, TRAK2, human, residues 1-914, full length; source: HEK 293 F GNTI-/- cells, PEI transfection, purified (TRAK purification procedure); not shown: His6-ZZ, N-terminal, cleaved; SNAP-tag or GFP, C-terminal, kept) MSQSQNAIFTSPTGEENLMNSNHRDSESITDVCSNEDLPEVELVSLLEEQLPQYRLKVDTLFLYENQDWTQSPHQRQHASDALSPVLAEETFRYMILGTDRVEQMTKTYNDIDMVTHLLAERDRDLELAARIGQALLKRNHVLSEQNESLEEQLGQAFDQVNQLQHELCKKDELLRIVSIASEESETDSSCSTPLRFNESFSLSQGLLQLEMLQEKLKELEEENMALRSKACHIKTETVTYEEKEQQLVSDCVKELRETNAQMSRMTEELSGKSDELIRYQEELSSLLSQIVDLQHKLKEHVIEKEELKLHLQASKDAQRQLTMELHELQDRNMECLGMLHESQEEIKELRSRSGPTAHLYFSQSYGAFTGESLAAEIEGTMRKKLSLDEESSLFKQKAQQKRVFDTVRIANDTRGRSISFPALLPIPGSNRSSVIMTAKPFESGLQQTEDKSLLNQGSSSEEVAGSSQKMGQPGPSGDSDLATALHRLSLRRQNYLSEKQFFAEEWQRKIQVLADQKEGVSGCVTPTESLASLCTTQSEITDLSSASCLRGFMPEKLQIVKPLEGSQTLYHWQQLAQPNLGTILDPRPGVITKGFTQLPGDAIYHISDLEEDEEEGITFQVQQPLEVEEKLSTSKPVTGIFLPPITSAGGPVTVATANPGKCLSCTNSTFTFTTCRILHPSDITQVTPSSGFPSLSCGSSGSSSSNTAVNSPALSYRLSIGESITNRRDSTTTFSSTMSLAKLLQERGISAKVYHSPISENPLQPLPKSLAIPSTPPNSPSHSPCPSPLPFEPRVHLSENFLASRPAETFLQEMYGLRPSRNPPDVGQLKMNLVDRLKRLGIARVVKNPGAQENGRCQEAEIGPQKPDSAVYLNSGSSLLGGLRRNQSLPVIMGSFAAPVCTSSPKMGVLKED | binds | 
5 | TRAK2^1–400 (domain or fragment, human, UniProt O60296 1-400, looked up, LD555 or LD655 dye on the SNAP-tag in motility assays, TRAK2, human, residues 1-400; full length printed as 1-914; also called T2^1–400; N-terminal coiled coil of TRAK2 with CC1 box and Spindly motif; source: baculovirus-infected SF9 cells, purified (IgG Sepharose, TEV protease); not shown: His6-ZZ, N-terminal, cleaved; SNAP-tag or GFP, C-terminal, kept) MSQSQNAIFTSPTGEENLMNSNHRDSESITDVCSNEDLPEVELVSLLEEQLPQYRLKVDTLFLYENQDWTQSPHQRQHASDALSPVLAEETFRYMILGTDRVEQMTKTYNDIDMVTHLLAERDRDLELAARIGQALLKRNHVLSEQNESLEEQLGQAFDQVNQLQHELCKKDELLRIVSIASEESETDSSCSTPLRFNESFSLSQGLLQLEMLQEKLKELEEENMALRSKACHIKTETVTYEEKEQQLVSDCVKELRETNAQMSRMTEELSGKSDELIRYQEELSSLLSQIVDLQHKLKEHVIEKEELKLHLQASKDAQRQLTMELHELQDRNMECLGMLHESQEEIKELRSRSGPTAHLYFSQSYGAFTGESLAAEIEGTMRKKLSLDEESSLFKQKAQ | binds | 
6 | TRAK1^1–400 (domain or fragment, human, UniProt Q9UPV9 1-400, looked up, LD555 or LD655 dye on the SNAP-tag in motility assays, TRAK1, human, residues 1-400; full length printed as 1-953; also called T1^1–400; N-terminal coiled coil of TRAK1 with CC1 box and Spindly motif; source: baculovirus-infected SF9 cells, purified (IgG Sepharose, TEV protease); not shown: His6-ZZ, N-terminal, cleaved; SNAP-tag or GFP, C-terminal, kept) MALVFQFGQPVRAQPLPGLCHGKLIRTNACDVCNSTDLPEVEIISLLEEQLPHYKLRADTIYGYDHDDWLHTPLISPDANIDLTTEQIEETLKYFLLCAERVGQMTKTYNDIDAVTRLLEEKERDLELAARIGQSLLKKNKTLTERNELLEEQVEHIREEVSQLRHELSMKDELLQFYTSAAEESEPESVCSTPLKRNESSSSVQNYFHLDSLQKKLKDLEEENVVLRSEASQLKTETITYEEKEQQLVNDCVKELRDANVQIASISEELAKKTEDAARQQEEITHLLSQIVDLQKKAKACAVENEELVQHLGAAKDAQRQLTAELRELEDKYAECMEMLHEAQEELKNLRNKTMPNTTSRRYHSLGLFPMDSLAAEIEGTMRKELQLEEAESPDITHQK | binds | 
